assay: soluble on expression in E. coli; label from the status in PepcDB or PDB records

Soluble on expression in E. coli, soluble:
MKVNILMATYNGEKFLAQQIESIQKQTFKEWNLLIRDDGSSDKTCDIIRNFTAKDSRIRFINENEHHNLGVIKSFFTLVNYEVADFYFFSDQDDVWLPEKLSVSLEAAKHKASDVPLLVYTDLKVVNQELNILQDSMIRAQSHHANTTLLPELTENTVTGGTMMINHALAEKWFTPNDILMHDWFLALLAASLGEIIYLDLPTQLYRQHDNNVLGARTMDKRFKILREGPKSIFTRYWKLIHDSQKQASLIVDKYGDIMTANDLELIKCFIKIDKQPFMTRLRWLWKYGYSKNQFKHQVVFKWLIATNYYNKRLEHHHHHH, MKVNVSCSSVQTTIDILEENQGEDESILTLGQLRDRIATDNDVDVETMKLLHRGKFLQGADDVSLSTLNFKENDKIIVMGGKNALVDDAGFKMLMQYEKHNLSNLQKAYDLNLRDVADLERGFLEKPKQVEMGKKLEKKVKYFNEEAERHLETLDGMNIITETTPENQAKRNREKRKTLVNGIQTLLNQNDALLRRLQEYQSVLNGDIPE, MLDLFADAEPWQEPLAAGAVILRRFAFNAAEQLIRDINDVASQSPFRQMVTPGGYTMSVAMTNCGHLGWTTHRQGYLYSPIDPQTNKPWPAMPQSFHNLCQRAATAAGYPDFQPDACLINRYAPGAKLSLHQDKDEPDLRAPIVSVSLGLPAIFQFGGLKRNDPLKRLLLEHGDVVVWGGESRLFYHGIQPLKAGFHPLTIDCRYNLTFRQAGKKENLYFQNLYFQ, MLEDYAISLEEVNFNDFIVVDVRELDEYEELHLPNATLISVNDQEKLADFLSQHKDKKVLLHCRAGRRALDAAKSMHELGYTPYYLEGNVYDFEKYGFRMVYDDTCDKKN, MLEESKNALRVFITGNPGVGKTTILLFLINKLSENNYKVAGFYCPEVRENGRRIGFRIVDITTNEGDWLAKENAPGRVKIGKYTVLEDSAKRITEITLSNINKADVLAIDEIGPMELKIPTIKKLIETILNNQKPLIAVLHRTQKPMGGRIYVITVENRDSIKYEILNYILSSLD, MLEKFTVIRGKAVPLRGEDIDTDRILPARFMKVLTFEGLGQYLFYDERFDEKGNPKPHPLNDPRYRGATILLVESGFGSGSSREHAPQAIKRAGFKAIIGESFAEIFFGNATAIGLPCVSLAPEDLGVLFRSVEENPELEVEIDLVNKEVRFGDRTAPLFIREEAREALVEGLWDPIGELLEAGELLDQFDRKLPYPRRTE, MLEKWEPIMAETRKLKYDEAALRTLTREDLDALEIGAGILGTGGGGNPYLGKLLALEAMKAGYEMKILATDAIEPDALCMSIGGIGAPVVGVERIREGREGLRCLRAMEELIRTPVDAIVCEEIGGSNSMNPLVTAALGGLPILDCDGMGRAFPEMQMTTFSIYGHSSTPSVMCDLHGNAVIFSHAVSEVWHERMARACVVAQGGGAMLATAPMQAHYVHQYGIPKTYTKAIAIGEAVIRARKQQEDPIAAVCALEGGRRIFNGKITDLKRHLRGGFAVGDLTLSGFDDCAGQTAGVAIQNEFLLFSRDGKVEVTVPDLIVLLDVDTGYPITTEVLRYGQRVAVIAIPCHDLLRSARALEVVGPAAFGYPDIPFSPLPLPVSKAALEHHHHHH, MLENYARFITAASAARNPSPIRTMTDILSRGPKSMISLAGGLPNPNMFPFKTAVITVENGKTIQFGEEMMKRALQYSPSAGIPELLSWLKQLQIKLHNPPTIHYPPSQGQMDLCVTSGSQQGLCKVFEMIINPGDNVLLDEPAYSGTLQSLHPLGCNIINVASDESGIVPDSLRDILSRWKPEDAKNPQKNTPKFLYTVPNGNNPTGNSLTSERKKEIYELARKYDFLIIEDDPYYFLQFNKFRVPTFLSMDVDGRVIRADSFSKIISSGLRIGFLTGPKPLIERVILHIQVSTLHPSTFNQLMISQLLHEWGEEGFMAHVDRVIDFYSNQKDAILAAADKWLTGLAEWHVPAAGMFLWIKVKGINDVKELIEEKAVKMGVLMLPGNAFYVDSSAPSPYLRASFSSASPEQMDVAFQVLAQLIKESL, MLGGNNDNPVPQVLMNDSQFRYQSNTSLNQLHLLGTMRAGCTIDPVNYFANDNLAPMMRLNSTRGRETENNNIMQRQQKLQISLNYNYNNNNTVVQDEVPKQNLVSTGLRLSYDDDERNSSVTSANGSITTPVYQSLGDNIRLDLNRQNDELDQFIKFRADQMAKGVRDIKQRHVTSFVTALEKDVSKKLQEKDHEIESMNKKNRELVDKIKQVAVEAQNWHYKAKYNESVVNALKVNLQQVMSHGNDNNAVGGGVADHHQMKEGFGDSEIDDEAASYNYLNIPGMPSTGMRCKLCNVKNVSVLLVPCRHLSLCKDCDVFTGVCPVCQSLKTSSVQVFFF, MLGLKTSIIGRRVIYFQEITSTNEFAKTSYLEEGTVIVADKQTMGHGALNRKWESPEGGLWLSIVLSPKVPQKDLPKIVFLGAVGVVETLKEFSIDGRIKWPNDVLVNYKAIAGVLVEGKGDKIVLGIGLNVNNKVPNGATSMKLELGSEVPLLSVFRSLITNLDRLYLNFLKNPMDILNLVRDNMILGVRVKILGDGSFEGIAEDIDDFGRLIIRLDSGEVKKVIYGDVSLRFL

Soluble on expression in E. coli, not soluble:
MKVRAIFLNFSVQLTPPSRLVILRNQSVFFSALLLNCPPLLPLPTEASPCYAVSESQPYARKQSCIITAARSAPSVDHIQVVLCRPHNSLLVCPSSHARSSTAVMATEDELRELLPKMRFNKEFKKKQKYQYKKRVEAREKEREIVTGKRRPASEQIQSASDGAKTKTTAAKKSGGAGRAGTKRKPKTRVPKLKVANVETGKETLTKKKARELVQENRKKKACAKKEPKLTAKSTRAGAATAAVVSSETLEGKQSKARVTKDELPATAAQAASSVEPTQTLTQAERDRELLARAIRGDDLLGSDAAAGVADDAAFIRQDPSLYPDHAFLDDYAEKKHAEAVSADELLQNAHHFFKKLSKQERALNKVAKEHINHLRAVNRRGGDKQGFRYVVPKNVKQVVRELLSAQKARDGDEDPETLVDTEQLVSTFGGDGVAETSEKPVRRSRRRRLRTYSDFYQFQVSRRWTRNAENFLKRSRSNKLLFEAKKHQRTIKHF, MKVSDILTVAIRLEEEGERFYRELSEHFNGEIKKTFLELADQERIHAEIFRKMSDQENWDEVDSYLAGYAFYEVFPDTSEILRRKDLTLKEVLDIAISVEKDSIILYYELKDGLVNSDAQKTVKKIIDQEKEHLRKLLEMKREST, MKWKVLQLKTQEIKVNNLAKSSLHQPGSLVLRNRIRNNQTISNHQKVYITNLHKDKLKLNNLLRLMKSTNRHMPFRNLVLATGQELALLHNKRKRRKTLPLALFYSHLILL, MKWRTRVTELLGITYPIIQGGLAYLAYADLAAAVSNAGGLGQITAMSLDGPEQLREEIRKVKEKTDRPFGVNFAIGQHGRPFAHMLEAALDEGVPVVSVTGGNPAPFFEQLKGTNVKKLVLVAAVRQAVKAEELGADAVMVVGQEGGGHLGKYDTGTFVLIPKVVDSVSIPVIASGGIADGRGLMAALALGAEGIEMGTRFIATKECVHAHPAYKEMILNATENDTVIIKRSLGAPGRVLANAWAEKILEIERQGGTYDDLKEYISGEANRRFIYEGKVDEGFAWAGQAIGLIHDVPSVAELFARMIEEAEQIRRRWAN, MKYKDLRDFIAMLEQQGKLKRVAHPVSPHLEMTEIADRVLRAEGPALLFENPVKPDGTRYDYPVLANLFGTPERVAMGMGADSVSKLREIGQTLAYLKEPEPPKGIKDAFSKLPLLKDIWSMAPNVVKNAPCQEIVWEGEDVDLYQLPIQHCWPEDVAPLVTWGLTVTRGPHKKRQNLGIYRQQLIGKNKLVMRWLSHRGGALDYQEFRKLNPDTPYPVAVVLGCDPSTILGAVTPVPDTLSEYQFAGLLRGSRTELVKCIGSDLQVPARAEIVLEGVIHPNETALEGPYGDHTGYYNEQGHFPVFTVERITMRENPIYHSTYTGKPPDEPAVLGVALNEVFVPLLQKQFSEITDFYLPPEGCSYRMAVVSMKKQYAGHAKRVMTGCWSFLRQFMYTKFIIVVDDDVNVRDWKEVIWAVTTRMDPVRDTVLVENTPIDYLDFASPVSGLGGKMGLDATSKWPGETDREWGRVIKKDPAVTVKIDGIWGKLGLLEHHHHHH, MKYQLRAIDNQLDEMLQFSGAIAVEGVKGVGKTESAIRRSEHLLQLDRAGDRQLLEADPEFSSFSTGTILIDEWQRMPECWDFVRRGVDAQRTPGRFLLTGSATPQAGIDTHSGAGRILSIRMRPMALFERREHSATVSLADLFLGNAPISGTTDLTLNDYVSEIARSGFPGFNEQPQRAINVELDSYIERIVDRDLPEQGYNVRNRAGLLGWMRAYAAASSTTMSYSEILNAATPGESDKPARKTAALYRSKLTEIWMLDEVPAWDFVRSPLAGLAQAPKHQLADPAFVLRLLGVPANRLVTERYRHFLGPLFESLATLSVRVAAESQFGSVRHLRTRRGDHEVDLIASNQDGDLVAIEVKLTADVKNDDVAHLHWLKEQLPDDVVDMVVLTTGNRAYRRSDGVAVVPLALFGA, MKYSSIFSMLSFFILFACNETAVYGSDENIIFMRYVEKLHLDKYSVKNTVKTETMAIQLAEIYVRYRYGERIAEEEKPYLITELPDSWVVEGAKLPYEVAGGVFIIEINKKNGCVLNFLHSKLEHHHHHH, MKYTFLLLCAIFGCTLAMRQQSVAVSGKLMCGSKPASGVKVKLWDEDDGPDPDDVLDEGFTNNDGTFRLEGSERELTNIDPVFKVYHDCDDGIIPGQRKIKFRIPNKYISAGGRAQKTFEIGVLNLETIFPKEERDLL, MLALMDADGNIAWSGEYDEWGNQLNEENPHHLHQPYRLPGQQYDKESGLYYNRNRYYDPLQGRYITQDPIGLEGGWSLYAYPLNPVNGIDPLGLSPADVALIRRKDQLNHQRAWDILSDTYEDMKRLNLGGTDQFFHCMAFCRVSKLNDAGVSRSAKGLGYEKEIRDYGLNLFGMYGRKVKLSHSEMIEDNKKDLAVNDHGLTCPSTTDCSDRCSDYINPEHKKTIKALQDAGYLKLEHHHHHH, MLASIVISSVHSIGTGALECRATHRGHRAGPYLSSSETRHRAAISGTVDMRETKQGLRHSGRSPSVASPKIDELIGRPQPDTIRLSRGRPVRNS, MLAVSFIAGVILIGLYGVDSSERYIAVSELLANPQDYSGQNINAMGVVEDRSLHKDPGVTSFDLKDENDENLKIHVNYVGNLPSNLAEGKQVTIRGSMISESTFEANKIVTGCPSKYTELEHHHHHH, MLEKIYSVLGTGSCLVKDGEIIESYLLSDEEVKLIEKIAKVIPFLPEKFKVGFFEHEGGRIIAIKHGEVFICFPARSDNVMSELRKVEVEVYDKILSP, MLELYHRKKLFNLLKAPLKKKPFFFIYNTKQTYRDKTPMRNIDFSKLHLSEDVRANEKVHNKRNLFMSNKIIHYLPPKRHD, MLERLKAITNLLKGALEQRSRAEEGYIREEKVKEAIELLEALERDIMEKELKLAKEALEKFDSNRKFYYLVGKLYVEVSKEEAQKLIEDELKMFGGEGK
